Reference: patent US20260069727A1, “FORMULATIONS FOR RADIOTHERAPY AND DIAGNOSTIC IMAGING AND USE THEREOF IN TREATMENT, DIAGNOSIS AND IMAGING DISEASES” (priority 2022, published 2026)
Entries after “also recorded” stand apart in the source; their conditions may differ.

Key:
[1] = Radiochemical purity / stability of the formulation by radioHPLC; format: physicochemical
Source text: The stability of the formulation relates to the stability of the complex, where the radioisotope may undergo dissociation or the complex may undergo radiolysis. The stability of the complex can be measured by considering the radiochemical purity of the formulation. Radiochemical purity is defined as the amount of the radioisotope complexed by the sarcophagine ligand expressed as a percentage of the total amount of the radioisotope present in the formulation. The radioisotope may be present in the formulation as a complex with the sarcophagine ligand, as a free radioisotope or as part of a radiolysis product. […] In the embodiments, described herein, radiochemical purity may be determined by techniques such as radioHPLC, where the amount of the radioisotope in either its complexed or free form is determined and compared with the amount of the radioisotope introduced to the formulation. A person skilled in the art would understand the necessary conditions for separation, analysis and quantification of the formulation by radioHPLC. Nonetheless, in certain embodiments, the mobile phase used to analyse a formulation as disclosed herein by radioHPLC comprises about 0.1% trifluoroacetic acid (TFA) in water. […]
Product stability was monitored up to 96 hours post End of Synthesis (EOS) for 3 validation batches of [^67Cu]Formula(Ib) in an aqueous formulation prepared as outlined above. […]

[2] = Free 67Cu in the formulation by radioTLC; format: physicochemical; conditions: batch QC result; acceptance ≤5%
Source text: The stability of the complex can also be measured by considering the amount of free copper, i.e. free copper radioisotope that is intended to be complexed with the sarcophagine ligand, present in the formulation. In certain embodiments, the amount of free copper radioisotope present in formulation is not more than about 5%. In other embodiments, the amount of free copper radioisotope present in the formulation is not more than about 4%. In other embodiments, the amount of free copper present in the formulation is not more than about 3%. In other embodiments, the amount of free copper present in the formulation is not more than about 2%. In other embodiments, the amount of free copper present in the formulation is not more than about 1%. In other embodiments, the amount of free ^67Cu present in the formulation is less than about 1%. In other embodiments, the amount of free ^67Cu present in the formulation is less than about 2%.
TLC was performed with a mobile phase of 10 mM NaEDTA in 50 mM phosphate buffer using a silica gel 60 F254 aluminium backed TLC plate with dimensions of 1 cm×10 cm.

[3] = pH by probe (quality control); format: physicochemical; conditions: batch QC result; acceptance 4.0-8.0
[4] = Appearance / visible particles in injection (quality control); format: physicochemical; conditions: batch QC result
[5] = cited from earlier work

Row | SMILES | Radiochemical purity by radio-HPLC ([1]; batch QC result, acceptance ≥90%) | radiochemical purity (RPC) over the stability test ([1]; up to 96 hours post End of Synthesis, 3 validation batches) | Free [67Cu]Cu2+ by TLC [2] | pH by probe [3] | Appearance/Visible particles in injection [4] | pKa (acid dissociation constant) [5]
1 | CC(C)CC(NC(=O)CC(O)C(CC(C)C)NC(=O)C(Cc1c[nH]cn1)NC(=O)CNC(=O)C(NC(=O)C(C)NC(=O)C(Cc1c[nH]c2ccccc12)NC(=O)C(CCC(N)=O)NC(=O)C(Cc1ccccc1)NC(=O)CCOCCNC(=O)CCCC(=O)NC12CNCCNCC(C)(CNCCNC1)CNCCNC2)C(C)C)C(N)=O (stereo not drawn) [[^67Cu]Formula (Ib), metal not drawn] | 94.23% | ≥ 94.0% | 0% | 6.72 | Clear ✓; also recorded: Particle-free ✓ | 
2 | O=C(O)c1cc(O)ccc1O [gentisic acid, 2,5-dihydroxybenzoic acid] |  |  |  |  |  | about 2.5
